The values that follow come from the supplement of paper PMC5998384.

Series [1] concerns HeLa Kyoto. The experiment in a line: solubility in G1/S (NP-40 vs SDS abundance) (log2 ratio); higher = more soluble. The following applies: cell cycle stage: G1/S.
Series [2] concerns HeLa Kyoto. The experiment in a line: thermal stability score vs G1/S (z-score of summed log2 fold changes over temperatures); higher = more thermally stable than in G1/S.
Series [3] has as its system HeLa Kyoto. The experiment in a line: melting temperature (median over replicates), in situ; higher = more thermally stable.
Series [4] relates to HeLa Kyoto. The experiment in a line: solubility change mitosis vs G1/S (difference of NP-40 vs SDS log2 ratios) (log2 ratio difference); higher = more soluble in mitosis.
Where [5] appears, read: cell cycle stage: early G1 (4.5 h after nocodazole release).
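For melting temperature (median over replicates), in situ in this document: HeLa Kyoto cells synchronized by double thymidine or nocodazole block, proteins quantified by TMT10plex mass spectrometry, three independent biological replicates.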
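For solubility change mitosis vs G1/S (difference of NP-40 vs SDS log2 ratios) in this document: synchronized HeLa Kyoto cells (double thymidine block for G1/S, nocodazole release for mitosis), protein amounts in NP-40 versus SDS lysates quantified by mass spectrometry, three biological replicates.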
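For solubility in G1/S (NP-40 vs SDS abundance) in this document: HeLa Kyoto cells arrested at G1/S by double thymidine block, proteins quantified by TMT10plex mass spectrometry in mild NP-40 versus SDS extracts, three biological replicates.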
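For thermal stability score vs G1/S (z-score of summed log2 fold changes over temperatures) in this document: synchronized HeLa Kyoto cells, proteins quantified by TMT10plex mass spectrometry, three biological replicates, mitosis taken 0.5 h after nocodazole release, G1/S directly after double thymidine block.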

In the case of “MAATFFGEVVKAPCRAGTEDEEEEEEGRRETPEDREVRLQLARKREVRLLRRQTKTSLEVSLLEKYPCSKFIIAIGNNAVAFLSSFVMNSGVWEEVGCAKLWNEWCRTTDTTHLSSTEAFCVFYHLKSNPSVFLCQCSCYVAEDQQYQWLEKVFGSCPRKNMQITILTCRHVTDYKTSESTGSLPSPFLRALKTQNFKDSACCPLLEQPNIVHDLPAAVLSYCQVWKIPAILYLCYTDVMKLDLITVEAFKPILSTRSLKGLVKNIPQSTEILKKLMTTNEIQSNIYT [PSMG1]”, the “solubility in G1/S (log2)” value in the series with HeLa Kyoto [1] came to 0.0966. Also, the values for the thermal stability score with HeLa Kyoto [2] (setting [5]) and in the series with HeLa Kyoto [2] (cell cycle stage: mitosis) were -0.428 and -1.27, respectively. The melting temperature in the series with HeLa Kyoto [3] (cell cycle stage: G1/S) came to 54.7 °C; with HeLa Kyoto [3] (cell cycle stage: mitosis), 54.4 °C. The “solubility change mitosis (log2)” value in the series with HeLa Kyoto [4] is -0.142.
In the case of “MAATGANAEKAESHNDCPVRLLNPNIAKMKEDILYHFNLTTSRHNFPALFGDVKFVCVGGSPSRMKAFIRCVGAELGLDCPGRDYPNICAGTDRYAMYKVGPVLSVSHGMGIPSISIMLHELIKLLYYARCSNVTIIRIGTSGGIGLEPGTVVITEQAVDTCFKAEFEQIVLGKRVIRKTDLNKKLVQELLLCSAELSEFTTVVGNTMCTLDFYEGQGRLDGALCSYTEKDKQAYLEAAYAAGVRNIEMESSVFAAMCSACGLQAAVVCVTLLNRLEGDQISSPRNVLSEYQQRPQRLVSYFIKKKLSKA [UPP1]”, the “solubility in G1/S (log2)” value in the series with HeLa Kyoto [1] amounted to 0.102. Besides, the thermal stability score with HeLa Kyoto [2] (setting [5]) was -4.67; with HeLa Kyoto [2] (cell cycle stage: mitosis) it was -3.64. For the same sequence, the melting temperature in the series with HeLa Kyoto [3] (cell cycle stage: G1/S) amounted to 56.8 °C; in the series with HeLa Kyoto [3] (cell cycle stage: mitosis) it was 56.3 °C. Besides, the “solubility change mitosis (log2)” value in the series on HeLa Kyoto [4] was -0.279.
On to “MAATRSPTRARERERSGAPAAGSDQVHSWMLATSQALDTVWRMAKGFVMLAVSFLVAAICYFRRLHLYSGHKLKWWIGYLQRKFKRNLSVEAEVDLLSYCAREWKGETPRNKLMRKAYEELFWRHHIKCVRQVRRDNYDALRSVLFQIFSQGISFPSWMKEKDIVKLPEKLLFSQGCNWIQQYSFGPEKYTGSNVFGKLRKYVELLKTQWTEFNGIRDYHKRGSMCNTLFSDAILEYKLYEALKFIMLYQVTEVYEQMKTKKVIPSLFRLLFSRETSSDPLSFMMNHLNSVGDTCGLEQIDMFILGYSLEVKIKVFRLFKFNSRDFEVCYPEEPLRDWPEISLLTENDRHYHIPVF [FAM105A]”, for which the “solubility in G1/S (log2)” value in the series with HeLa Kyoto [1] is -0.437. For the same sequence, the results for the thermal stability score in the series on HeLa Kyoto [2] (setting [5]) and with HeLa Kyoto [2] (cell cycle stage: mitosis) were -0.702 and -1.45, respectively. In the series with HeLa Kyoto [3] (cell cycle stage: mitosis), this sequence returned a melting temperature of 52.7 °C. Moreover, in the series with HeLa Kyoto [4], the “solubility change mitosis (log2)” value is -0.0882.
On to “MAATSLMSALAARLLQPAHSCSLRLRPFHLAAVRNEAVVISGRKLAQQIKQEVRQEVEEWVASGNKRPHLSVILVGENPASHSYVLNKTRAAAVVGINSETIMKPASISEEELLNLINKLNNDDNVDGLLVQLPLPEHIDERRICNAVSPDKDVDGFHVINVGRMCLDQYSMLPATPWGVWEIIKRTGIPTLGKNVVVAGRSKNVGMPIAMLLHTDGAHERPGGDATVTISHRYTPKEQLKKHTILADIVISAAGIPNLITADMIKEGAAVIDVGINRVHDPVTAKPKLVGDVDFEGVRQKAGYITPVPGGVGPMTVAMLMKNTIIAAKKVLRLEEREVLKSKELGVATN [MTHFD2]”, for which, in the series on HeLa Kyoto [1], the “solubility in G1/S (log2)” value was 0.505. Besides, the thermal stability score is 0.31 in the series on HeLa Kyoto [2] (setting [5]) and -0.889 in the series on HeLa Kyoto [2] (cell cycle stage: mitosis). The figures for the melting temperature with HeLa Kyoto [3] (cell cycle stage: G1/S) and with HeLa Kyoto [3] (cell cycle stage: mitosis) were 52.5 °C and 53.3 °C, respectively. Besides, the “solubility change mitosis (log2)” value in the series on HeLa Kyoto [4] is -0.0584.
Turning to “MAAVAALQLGLRAAGLGRAPASAAWRSVLRVSPRPGVAWRPSRCGSSAAEASATKAEDDSFLQWVLLLIPVTAFGLGTWQVQRRKWKLNLIAELESRVLAEPVPLPADPMELKNLEYRPVKVRGCFDHSKELYMMPRTMVDPVREAREGGLISSSTQSGAYVVTPFHCTDLGVTILVNRGFVPRKKVNPETRQKGQIEGEVDLIGMVRLTETRQPFVPENNPERNHWHYRDLEAMARITGAEPIFIDANFQSTVPGGPIGGQTRVTLRNEHLQYIVTWYGLSAATSYLWFKKFLRGTPGV [SURF1]”, the “solubility in G1/S (log2)” value in the series on HeLa Kyoto [1] was found to be 0.298. The thermal stability score in the series on HeLa Kyoto [2] (setting [5]) was -0.638; in the series with HeLa Kyoto [2] (cell cycle stage: mitosis) it was -0.542. Moreover, the melting temperature in the series with HeLa Kyoto [3] (cell cycle stage: G1/S) and in the series with HeLa Kyoto [3] (cell cycle stage: mitosis) was 52.2 °C each time. The “solubility change mitosis (log2)” value in the series with HeLa Kyoto [4] was -0.105.
Consider “MAAVAATAAAKGNGGGGGRAGAGDASGTRKKKGPGPLATAYLVIYNVVMTAGWLVIAVGLVRAYLAKGSYHSLYYSIEKPLKFFQTGALLEILHCAIGIVPSSVVLTSFQVMSRVFLIWAVTHSVKEVQSEDSVLLFVIAWTITEIIRYSFYTFSLLNHLPYLIKWARYTLFIVLYPMGVSGELLTIYAALPFVRQAGLYSISLPNKYNFSFDYYAFLILIMISYIPIFPQLYFHMIHQRRKILSHTEEHKKFE [HACD2]”, for which the “solubility in G1/S (log2)” value with HeLa Kyoto [1] was -0.368. Also, the thermal stability score with HeLa Kyoto [2] (setting [5]) was 0.894; in the series on HeLa Kyoto [2] (cell cycle stage: mitosis), -0.449. The melting temperature in the series with HeLa Kyoto [3] (cell cycle stage: G1/S) was found to be 54.2 °C; in the series with HeLa Kyoto [3] (cell cycle stage: mitosis) it was 55.4 °C. In the series on HeLa Kyoto [4], the “solubility change mitosis (log2)” value amounted to 0.15.
For the sequence “MAAVDSFYLLYREIARSCNCYMEALALVGAWYTARKSITVICDFYSLIRLHFIPRLGSRADLIKQYGRWAVVSGATDGIGKAYAEELASRGLNIILISRNEEKLQVVAKDIADTYKVETDIIVADFSSGREIYLPIREALKDKDVGILVNNVGVFYPYPQYFTQLSEDKLWDIINVNIAAASLMVHVVLPGMVERKKGAIVTISSGSCCKPTPQLAAFSASKAYLDHFSRALQYEYASKGIFVQSLIPFYVATSMTAPSNFLHRCSWLVPSPKVYAHHAVSTLGISKRTTGYWSHSIQFLFAQYMPEWLWVWGANILNRSLRKEALSCTA [HSDL1]”, the “solubility in G1/S (log2)” value in the series with HeLa Kyoto [1] is -0.127. Besides, the thermal stability score in the series with HeLa Kyoto [2] (setting [5]) was -1.62; in the series with HeLa Kyoto [2] (cell cycle stage: mitosis), -2.08. In addition, the figures for the melting temperature in the series on HeLa Kyoto [3] (cell cycle stage: G1/S) and with HeLa Kyoto [3] (cell cycle stage: mitosis) were 57.5 °C and 54.3 °C, respectively. For the same sequence, in the series with HeLa Kyoto [4], the “solubility change mitosis (log2)” value was -0.155.
